The assay has as its target purified active porcine pancreatic elastase (porcine) (UniProt P00772). The assay can be described thus: cell-based or functional assay.
Sequence of UniProt P00772 (P00772 27-266 limits assumed): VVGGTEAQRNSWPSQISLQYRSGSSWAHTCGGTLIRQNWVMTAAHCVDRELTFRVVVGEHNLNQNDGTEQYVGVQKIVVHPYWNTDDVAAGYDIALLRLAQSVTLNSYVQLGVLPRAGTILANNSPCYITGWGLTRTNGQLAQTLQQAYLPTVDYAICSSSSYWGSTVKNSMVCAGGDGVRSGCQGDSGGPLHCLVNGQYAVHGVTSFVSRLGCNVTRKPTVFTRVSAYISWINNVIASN

“plasma-derived human alpha-1-antitrypsin (Prolastin-C) (from UniProt P01009 25-418)” registered an A1AT concentration at which a decrease in elastase activity was detected above 0.1 µM.

Values taken from patent publication US20230272445A1.
